Reference: patent US12104181B2, “Compositions and methods for treating viral infections targeting TRIM7” (THE BOARD OF REGENTS OF THE UNIVERSITY OF TEXAS SYSTEM, priority 2021, dated 2024)

Test system: coxsackievirus B3 (CVB3-GFP)
Type: cell-based
Conditions: HeLa cells, replicate R1; for Percent Infected R1: GFP-positive cells within RFP-positive gate

B1: TRIM22: human RING type E3 ligase expressed from lentiviral vector (protein, UniProt Q8IYM9 1-498, looked up)
E3 ubiquitin-protein ligase …: MDFSVKVDIEKEVTCPICLELLTEPLSLDCGHSFCQACITAKIKESVIISRGESSCPVCQTRFQPGNLRPNRHLANIVERVKEVKMSPQEGQKRDVCEHHGKKLQIFCKEDGKVICWVCELSQEHQGHQTFRINEVVKECQEKLQVALQRLIKEDQEAEKLEDDIRQERTAWKNYIQIERQKILKGFNEMRVILDNEEQRELQKLEEGEVNVLDNLAAATDQLVQQRQDASTLISDLQRRLRGSSVEMLQDVIDVMKRSESWTLKKPKSVSKKLKSVFRVPDLSGMLQVLKELTDVQYYWVDVMLNPGSATSNVAISVDQRQVKTVRTCTFKNSNPCDFSAFGVFGCQYFSSGKYYWEVDVSGKIAWILGVHSKISSLNKRKSSGFAFDPSVNYSKVYSRYRPQYGYWVIGLQNTCEYNAFEDSSSSDPKVLTLFMAVPPCRIGVFLDYEAGIVSFFNVTNHGALIYKFSGCRFSRPAYPYFNPWNCLVPMTVCPPSS
- Percent Infected R1: 49.4%
- Z score R1: −0.499

B2: TRIM29: human RING type E3 ligase expressed from lentiviral vector (protein, UniProt Q14134 1-588, looked up)
Tripartite motif-containing …: MEAADASRSNGSSPEARDARSPSGPSGSLENGTKADGKDAKTTNGHGGEAAEGKSLGSALKPGEGRSALFAGNEWRRPIIQFVESGDDKNSNYFSMDSMEGKRSPYAGLQLGAAKKPPVTFAEKGELRKSIFSESRKPTVSIMEPGETRRNSYPRADTGLFSRSKSGSEEVLCDSCIGNKQKAVKSCLVCQASFCELHLKPHLEGAAFRDHQLLEPIRDFEARKCPVHGKTMELFCQTDQTCICYLCMFQEHKNHSTVTVEEAKAEKETELSLQKEQLQLKIIEIEDEAEKWQKEKDRIKSFTTNEKAILEQNFRDLVRDLEKQKEEVRAALEQREQDAVDQVKVIMDALDERAKVLHEDKQTREQLHSISDSVLFLQEFGALMSNYSLPPPLPTYHVLLEGEGLGQSLGNFKDDLLNVCMRHVEKMCKADLSRNFIERNHMENGGDHRYVNNYTNSFGGEWSAPDTMKRYSMYLTPKGGVRTSYQPSSPGRFTKETTQKNFNNLYGTKGNYTSRVWEYSSSIQNSDNDLPVVQGSSSFSLKGYPSLMRSQSPKAQPQTWKSGKQTMLSHYRPFYVNKGNGIGSNEAP
modifications: lentiviral expression
notes: human RING type E3 ligase expressed from lentiviral vector
- Percent Infected R1: 68%
- Z score R1: −0.262

B3: TRIM23: human RING type E3 ligase expressed from lentiviral vector (protein, UniProt P36406 1-574, looked up)
E3 ubiquitin-protein ligase …: MATLVVNKLGAGVDSGRQGSRGTAVVKVLECGVCEDVFSLQGDKVPRLLLCGHTVCHDCLTRLPLHGRAIRCPFDRQVTDLGDSGVWGLKKNFALLELLERLQNGPIGQYGAAEESIGISGESIIRCDEDEAHLASVYCTVCATHLCSECSQVTHSTKTLAKHRRVPLADKPHEKTMCSQHQVHAIEFVCLEEGCQTSPLMCCVCKEYGKHQGHKHSVLEPEANQIRASILDMAHCIRTFTEEISDYSRKLVGIVQHIEGGEQIVEDGIGMAHTEHVPGTAENARSCIRAYFYDLHETLCRQEEMALSVVDAHVREKLIWLRQQQEDMTILLSEVSAACLHCEKTLQQDDCRVVLAKQEITRLLETLQKQQQQFTEVADHIQLDASIPVTFTKDNRVHIGPKMEIRVVTLGLDGAGKTTILFKLKQDEFMQPIPTIGFNVETVEYKNLKFTIWDVGGKHKLRPLWKHYYLNTQAVVFVVDSSHRDRISEAHSELAKLLTEKELRDALLLIFANKQDVAGALSVEEITELLSLHKLCCGRSWYIQGCDARSGMGLYEGLDWLSRQLVAAGVLDVA
- Percent Infected R1: 61.5%
- Z score R1: −0.345

B4: TRIM26: human RING type E3 ligase expressed from lentiviral vector (protein, UniProt Q12899 1-539, looked up)
Tripartite motif-containing …: MATSAPLRSLEEEVTCSICLDYLRDPVTIDCGHVFCRSCTTDVRPISGSRPVCPLCKKPFKKENIRPVWQLASLVENIERLKVDKGRQPGEVTREQQDAKLCERHREKLHYYCEDDGKLLCVMCRESREHRPHTAVLMEKAAQPHREKILNHLSTLRRDRDKIQGFQAKGEADILAALKKLQDQRQYIVAEFEQGHQFLREREEHLLEQLAKLEQELTEGREKFKSRGVGELARLALVISELEGKAQQPAAELMQDTRDFLNRYPRKKFWVGKPIARVVKKKTGEFSDKLLSLQRGLREFQGKLLRDLEYKTVSVTLDPQSASGYLQLSEDWKCVTYTSLYKSAYLHPQQFDCEPGVLGSKGFTWGKVYWEVEVEREGWSEDEEEGDEEEEGEEEEEEEEAGYGDGYDDWETDEDEESLGDEEEEEEEEEEEVLESCMVGVARDSVKRKGDLSLRPEDGVWALRLSSSGIWANTSPEAELFPALRPRRVGIALDYEGGTVTFTNAESQELIYTFTATFTRRLVPFLWLKWPGTRLLLRP
modifications: lentiviral expression
notes: as for B2
- Percent Infected R1: 49.3%
- Z score R1: −0.5

B5: TRIM27: human RING type E3 ligase expressed from lentiviral vector (protein, UniProt P14373 1-513, looked up)
Zinc finger protein RFP: MASGSVAECLQQETTCPVCLQYFAEPMMLDCGHNICCACLARCWGTAETNVSCPQCRETFPQRHMRPNRHLANVTQLVKQLRTERPSGPGGEMGVCEKHREPLKLYCEEDQMPICVVCDRSREHRGHSVLPLEEAVEGFKEQIQNQLDHLKRVKDLKKRRRAQGEQARAELLSLTQMEREKIVWEFEQLYHSLKEHEYRLLARLEELDLAIYNSINGAITQFSCNISHLSSLIAQLEEKQQQPTRELLQDIGDTLSRAERIRIPEPWITPPDLQEKIHIFAQKCLFLTESLKQFTEKMQSDMEKIQELREAQLYSVDVTLDPDTAYPSLILSDNLRQVRYSYLQQDLPDNPERFNLFPCVLGSPCFIAGRHYWEVEVGDKAKWTIGVCEDSVCRKGGVTSAPQNGFWAVSLWYGKEYWALTSPMTALPLRTPLQRVGIFLDYDAGEVSFYNVTERCHTFTFSHATFCGPVRPYFSLSYSGGKSAAPLIICPMSGIDGFSGHVGNHGHSMETSP
modifications: lentiviral expression
notes: as for B2
- Percent Infected R1: 60.7%
- Z score R1: −0.355

B6: RLIM: human RING type E3 ligase expressed from lentiviral vector (protein, UniProt Q9NVW2 1-624, looked up)
E3 ubiquitin-protein ligase …: MENSDSNDKGSGDQSAAQRRSQMDRLDREEAFYQFVNNLSEEDYRLMRDNNLLGTPGESTEEELLRRLQQIKEGPPPQNSDENRGGDSSDDVSNGDSIIDWLNSVRQTGNTTRSGQRGNQSWRAVSRTNPNSGDFRFSLEINVNRNNGSQNSENENEPSARRSSGENVENNSQRQVENPRSESTSARPSRSERNSTEALTEVPPTRGQRRARSRSPDHRRTRARAERSRSPLHPMSEIPRRSHHSISSQTFEHPLVNETEGSSRTRHHVTLRQQISGPELLSRGLFAASGTRNASQGAGSSDTAASGESTGSGQRPPTIVLDLQVRRVRPGEYRQRDSIASRTRSRSQTPNNTVTYESERGGFRRTFSRSERAGVRTYVSTIRIPIRRILNTGLSETTSVAIQTMLRQIMTGFGELSYFMYSDSDSEPTGSVSNRNMERAESRSGRGGSGGGSSSGSSSSSSSSSSSSSSSSSSSSPSSSSGGESSETSSDLFEGSNEGSSSSGSSGARREGRHRAPVTFDESGSLPFLSLAQFFLLNEDDDDQPRGLTKEQIDNLAMRSFGENDALKTCSVCITEYTEGNKLRKLPCSHEYHVHCIDRWLSENSTCPICRRAVLASGNRESVV
- Percent Infected R1: 82%
- Z score R1: −0.08

B7: TRIM24: human RING type E3 ligase expressed from lentiviral vector (protein, UniProt O15164 1-1050, looked up)
Transcription intermediary …: MEVAVEKAVAAAAAASAAASGGPSAAPSGENEAESRQGPDSERGGEAARLNLLDTCAVCHQNIQSRAPKLLPCLHSFCQRCLPAPQRYLMLPAPMLGSAETPPPVPAPGSPVSGSSPFATQVGVIRCPVCSQECAERHIIDNFFVKDTTEVPSSTVEKSNQVCTSCEDNAEANGFCVECVEWLCKTCIRAHQRVKFTKDHTVRQKEEVSPEAVGVTSQRPVFCPFHKKEQLKLYCETCDKLTCRDCQLLEHKEHRYQFIEEAFQNQKVIIDTLITKLMEKTKYIKFTGNQIQNRIIEVNQNQKQVEQDIKVAIFTLMVEINKKGKALLHQLESLAKDHRMKLMQQQQEVAGLSKQLEHVMHFSKWAVSSGSSTALLYSKRLITYRLRHLLRARCDASPVTNNTIQFHCDPSFWAQNIINLGSLVIEDKESQPQMPKQNPVVEQNSQPPSGLSSNQLSKFPTQISLAQLRLQHMQQQVMAQRQQVQRRPAPVGLPNPRMQGPIQQPSISHQQPPPRLINFQNHSPKPNGPVLPPHPQQLRYPPNQNIPRQAIKPNPLQMAFLAQQAIKQWQISSGQGTPSTTNSTSSTPSSPTITSAAGYDGKAFGSPMIDLSSPVGGSYNLPSLPDIDCSSTIMLDNIVRKDTNIDHGQPRPPSNRTVQSPNSSVPSPGLAGPVTMTSVHPPIRSPSASSVGSRGSSGSSSKPAGADSTHKVPVVMLEPIRIKQENSGPPENYDFPVVIVKQESDEESRPQNANYPRSILTSLLLNSSQSSTSEETVLRSDAPDSTGDQPGLHQDNSSNGKSEWLDPSQKSPLHVGETRKEDDPNEDWCAVCQNGGELLCCEKCPKVFHLSCHVPTLTNFPSGEWICTFCRDLSKPEVEYDCDAPSHNSEKKKTEGLVKLTPIDKRKCERLLLFLYCHEMSLAFQDPVPLTVPDYYKIIKNPMDLSTIKKRLQEDYSMYSKPEDFVADFRLIFQNCAEFNEPDSEVANAGIKLENYFEELLKNLYPEKRFPKPEFRNESEDNKFSDDSDDDFVQPRKKRLKSIEERQLLK
- Percent Infected R1: 69.5%
- Z score R1: −0.243

B8: TRIM20: human RING type E3 ligase expressed from lentiviral vector (protein, UniProt O15553 1-781, looked up)
Pyrin: MAKTPSDHLLSTLEELVPYDFEKFKFKLQNTSVQKEHSRIPRSQIQRARPVKMATLLVTYYGEEYAVQLTLQVLRAINQRLLAEELHRAAIQEYSTQENGTDDSAASSSLGENKPRSLKTPDHPEGNEGNGPRPYGGGAASLRCSQPEAGRGLSRKPLSKRREKASEGLDAQGKPRTRSPALPGGRSPGPCRALEGGQAEVRLRRNASSAGRLQGLAGGAPGQKECRPFEVYLPSGKMRPRSLEVTISTGEKAPANPEILLTLEEKTAANLDSATEPRARPTPDGGASADLKEGPGNPEHSVTGRPPDTAASPRCHAQEGDPVDGTCVRDSCSFPEAVSGHPQASGSRSPGCPRCQDSHERKSPGSLSPQPLPQCKRHLKQVQLLFCEDHDEPICLICSLSQEHQGHRVRPIEEVALEHKKKIQKQLEHLKKLRKSGEEQRSYGEEKAVSFLKQTEALKQRVQRKLEQVYYFLEQQEHFFVASLEDVGQMVGQIRKAYDTRVSQDIALLDALIGELEAKECQSEWELLQDIGDILHRAKTVPVPEKWTTPQEIKQKIQLLHQKSEFVEKSTKYFSETLRSEMEMFNVPELIGAQAHAVNVILDAETAYPNLIFSDDLKSVRLGNKWERLPDGPQRFDSCIIVLGSPSFLSGRRYWEVEVGDKTAWILGACKTSISRKGNMTLSPENGYWVVIMMKENEYQASSVPPTRLLIKEPPKRVGIFVDYRVGSISFYNVTARSHIYTFASCSFSGPLQPIFSPGTRDGGKNTAPLTICPVGGQGPD
modifications: lentiviral expression
notes: as for B2
- Percent Infected R1: 78.8%
- Z score R1: −0.125
